# Measurements as given in the Human Domainome abundance scans (Beltran et al. 2025).
# ± gives the uncertainty stated by the source.
# B1: Nucleosome-remodeling factor subunit BPTF, residues 2862 to 2918; numbered along this chain, Q12830 (parent)
# chain: TKKDTKLYCICKTPYDESKFYIGCDRCQNWYHGRCVGILQSEAELIDEYVCPQCQST
# Variants of: B1
# Assay: abundance fitness (aPCA) (normalised: wild type 0, dead -1); higher = more abundant; growth selection in yeast, the domain comes from the species named
# Settings: Homo sapiens
row,Variant,abundance fitness
1,TKKDTKLYCICKTPYDESKFYIGCDRKQNWYHGRCVGILQSEAELIDEYVCPQCQST,-0.822 ± 0.09
2,TKKDTKLYCICKTPYDESKFYIGCDREQNWYHGRCVGILQSEAELIDEYVCPQCQST,-0.785 ± 0.096
3,TKKDTKLYCICKTPYDESKFYIGCDRLQNWYHGRCVGILQSEAELIDEYVCPQCQST,-1.04 ± 0.11
4,TKKDTKLYCICKTPYDESKFYIGCDRFQNWYHGRCVGILQSEAELIDEYVCPQCQST,-0.843 ± 0.2
5,TKKDTKLYCICKTPYDESKFYIGCDRDQNWYHGRCVGILQSEAELIDEYVCPQCQST,-0.962 ± 0.25
6,TKKDTKLYCICKTPYDESKFYIGCDRIQNWYHGRCVGILQSEAELIDEYVCPQCQST,-1.15 ± 0.29
7,TKKDTKLYCICKTPYDESKFYIGCDRHQNWYHGRCVGILQSEAELIDEYVCPQCQST,-1.11 ± 0.29
8,TKKDTKLYCICKTPYDESKFYIGCDRAQNWYHGRCVGILQSEAELIDEYVCPQCQST,-1.05 ± 0.13
9,TKKDTKLYCICKTPYDESKFYIGCDRGQNWYHGRCVGILQSEAELIDEYVCPQCQST,-0.758 ± 0.089
10,TKKDTKLYCICKTPYDESKFYIGCIRCQNWYHGRCVGILQSEAELIDEYVCPQCQST,-0.15 ± 0.16
11,TKKDTKLYCICKTPYDESKFYIGCARCQNWYHGRCVGILQSEAELIDEYVCPQCQST,-0.011 ± 0.078
12,TKKDTKLYCICKTPYDESKFYIGCRRCQNWYHGRCVGILQSEAELIDEYVCPQCQST,0.025 ± 0.067
13,TKKDTKLYCICKTPYDESKFYIGCSRCQNWYHGRCVGILQSEAELIDEYVCPQCQST,0.054 ± 0.064
14,TKKDTKLYCICKTPYDESKFYIGCFRCQNWYHGRCVGILQSEAELIDEYVCPQCQST,-0.168 ± 0.16
15,TKKDTKLYCICKTPYDESKFYIGCTRCQNWYHGRCVGILQSEAELIDEYVCPQCQST,0.056 ± 0.078
16,TKKDTKLYCICKTPYDESKFYIGCQRCQNWYHGRCVGILQSEAELIDEYVCPQCQST,0.099 ± 0.099
17,TKKDTKLYCICKTPYDESKFYIGCPRCQNWYHGRCVGILQSEAELIDEYVCPQCQST,-0.204 ± 0.081
18,TKKDTKLYCICKTPYDESKFYIGCLRCQNWYHGRCVGILQSEAELIDEYVCPQCQST,-0.021 ± 0.061
19,TKKDTKLYCICKTPYDESKFYIGCNRCQNWYHGRCVGILQSEAELIDEYVCPQCQST,0 ± 0.1
20,TKKDTKLYCICKTPYDESKFYIGCKRCQNWYHGRCVGILQSEAELIDEYVCPQCQST,0.154 ± 0.11
21,TKKDTKLYCICKTPYDESKFYIGCWRCQNWYHGRCVGILQSEAELIDEYVCPQCQST,-0.176 ± 0.083
22,TKKDTKLYCICKTPYDESKFYIGCGRCQNWYHGRCVGILQSEAELIDEYVCPQCQST,-0.041 ± 0.092
23,TKKDTKLYCICKTPYDESKFYIGCHRCQNWYHGRCVGILQSEAELIDEYVCPQCQST,-0.061 ± 0.15

row,Variant,abundance fitness
1,TKKDTKLYCICKTPYDESKFYIGCERCQNWYHGRCVGILQSEAELIDEYVCPQCQST,0.058 ± 0.07
2,TKKDTKLYCICKTPYDESKFYIICDRCQNWYHGRCVGILQSEAELIDEYVCPQCQST,-0.546 ± 0.2
3,TKKDTKLYCICKTPYDESKFYIACDRCQNWYHGRCVGILQSEAELIDEYVCPQCQST,-0.099 ± 0.077
4,TKKDTKLYCICKTPYDESKFYIWCDRCQNWYHGRCVGILQSEAELIDEYVCPQCQST,-0.177 ± 0.11
5,TKKDTKLYCICKTPYDESKFYICCDRCQNWYHGRCVGILQSEAELIDEYVCPQCQST,-0.007 ± 0.12
6,TKKDTKLYCICKTPYDESKFYIYCDRCQNWYHGRCVGILQSEAELIDEYVCPQCQST,-0.031 ± 0.13
7,TKKDTKLYCICKTPYDESKFYIFCDRCQNWYHGRCVGILQSEAELIDEYVCPQCQST,-0.139 ± 0.13
8,TKKDTKLYCICKTPYDESKFYIRCDRCQNWYHGRCVGILQSEAELIDEYVCPQCQST,-0.126 ± 0.078
9,TKKDTKLYCICKTPYDESKFYISCDRCQNWYHGRCVGILQSEAELIDEYVCPQCQST,-0.085 ± 0.079
10,TKKDTKLYCICKTPYDESKFYITCDRCQNWYHGRCVGILQSEAELIDEYVCPQCQST,-0.021 ± 0.095
11,TKKDTKLYCICKTPYDESKFYIHCDRCQNWYHGRCVGILQSEAELIDEYVCPQCQST,0.029 ± 0.14
12,TKKDTKLYCICKTPYDESKFYIDCDRCQNWYHGRCVGILQSEAELIDEYVCPQCQST,-0.085 ± 0.096
13,TKKDTKLYCICKTPYDESKFYIMCDRCQNWYHGRCVGILQSEAELIDEYVCPQCQST,-0.016 ± 0.12
14,TKKDTKLYCICKTPYDESKFYIKCDRCQNWYHGRCVGILQSEAELIDEYVCPQCQST,-0.13 ± 0.13
15,TKKDTKLYCICKTPYDESKFYIPCDRCQNWYHGRCVGILQSEAELIDEYVCPQCQST,-0.297 ± 0.1
16,TKKDTKLYCICKTPYDESKFYINCDRCQNWYHGRCVGILQSEAELIDEYVCPQCQST,-0.133 ± 0.14
17,TKKDTKLYCICKTPYDESKFYIVCDRCQNWYHGRCVGILQSEAELIDEYVCPQCQST,-0.223 ± 0.079
18,TKKDTKLYCICKTPYDESKFYIQCDRCQNWYHGRCVGILQSEAELIDEYVCPQCQST,-0.079 ± 0.12
19,TKKDTKLYCICKTPYDESKFYIGCDGCQNWYHGRCVGILQSEAELIDEYVCPQCQST,0.041 ± 0.077
20,TKKDTKLYCICKTPYDESKFYIGCDECQNWYHGRCVGILQSEAELIDEYVCPQCQST,-0.087 ± 0.11
21,TKKDTKLYCICKTPYDESKFYIGCDHCQNWYHGRCVGILQSEAELIDEYVCPQCQST,0.064 ± 0.1
22,TKKDTKLYCICKTPYDESKFYIGCDYCQNWYHGRCVGILQSEAELIDEYVCPQCQST,-0.11 ± 0.094
23,TKKDTKLYCICKTPYDESKFYIGCDWCQNWYHGRCVGILQSEAELIDEYVCPQCQST,-0.278 ± 0.14
